Data published in patent publication US20210292416A1 (Eli Lilly, published 2021).
Blank lines part the entries; values can stand above or below the binder they belong to.

What was measured:
human CD137-ECD = target: T1, human CD137-ECD (human, UniProt Q07011 24-186); assay: SPR (Biacore 2000) at 37 C, antibody captured on Protein A, soluble CD137-ECD as analyte, steady state affinity fit
T1 construct: In-house generated soluble ECD

human CD137 (on cells) = human CD137 (on cells) (human, UniProt Q07011 24-255); assay: cell-based or functional assay
human PD-1 (on cells) [1] = target: T2, human PD-1 (on cells) (human, UniProt Q15116 25-288); assay: cell-based or functional assay
[2] = target: T3, human CD137-ECD-C121S-Fc mutant G98Q (human, UniProt Q07011 24-186); assay: point ELISA on coated CD137-Fc mutant, mean of normalised absorbance over eight concentrations
T3 construct: Mutant of human CD137-ECD-C121S-Fc; not shown: Fc part
Description: (§1) The CD137-Fc mutants are generated using the standard protocol of a commercially-available site directed mutagenesis kit (Quickchange II kit, […]). The wild-type and mutant CD137-Fc proteins are expressed and purified. […] To determine the impact of a mutation on the binding of the antibodies, a point ELISA assay against CD137-Fc wild type and mutants is utilized. The wells of a 96-well Immulon 4HBX ELISA plate are coated overnight with 50 nanograms of human CD137-ECD-C121S-Fc or its mutants in 100 microliters of PBS, pH 7.2 with mild agitation at 4° C. After blocking (with 5% BSA in PBST) and washing, a five-fold dilution eight-point series (100 to 0.00128 nanomolar) of the designated antibody is added and incubated with mild agitation at room temperature for 1 h. The wells are washed and a HRP-conjugated secondary antibody (1:10000 dilution of HRP-conjugated goat anti-Fab antibody (Jackson ImmunoResearch Laboratories) is added and incubated at room temperature following standard protocol. TMB peroxidase chromogenic substrate and stop solution are used according to manufacturer's instruction for visualization and detection of signals. Absorbance readings for each concentration point is normalized by the absorbance of the wild-type interaction. For each mutant, the mean of the normalized ratio for the eight concentrations is determined.

[3] = target: T4, human CD137-ECD-C121S-Fc mutant M101R (human, UniProt Q07011 24-186); assay: as above
T4 construct: Mutant of human CD137-ECD-C121S-Fc; not shown: Fc part
Description: as §1

[4] = target: T5, human CD137-ECD-C121S-Fc mutant Q67R (human, UniProt Q07011 24-186); assay: as above
T5 construct: Mutant of human CD137-ECD-C121S-Fc; not shown: Fc part
Description: as §1

[5] = target: T6, human CD137-ECD-C121S-Fc mutant K114E (human, UniProt Q07011 24-186); assay: as above
T6 construct: Mutant of human CD137-ECD-C121S-Fc; not shown: Fc part
Description: as §1

[6] = target: T7, human CD137-ECD-C121S-Fc mutant Q67V (human, UniProt Q07011 24-186); assay: as above
T7 construct: Mutant of human CD137-ECD-C121S-Fc; not shown: Fc part
Description: as §1

[7] = target: T8, human CD137-ECD-C121S-Fc mutant N42S (human, UniProt Q07011 24-186); assay: as above
T8 construct: Mutant of human CD137-ECD-C121S-Fc; not shown: Fc part
Description: as §1

[8] = target: T9, human CD137-ECD-C121S-Fc mutant S100T (human, UniProt Q07011 24-186); assay: as above
T9 construct: Mutant of human CD137-ECD-C121S-Fc; not shown: Fc part
Description: as §1

[9] = target: T10, human CD137-ECD-C121S-Fc mutant D63N (human, UniProt Q07011 24-186); assay: as above
T10 construct: Mutant of human CD137-ECD-C121S-Fc; not shown: Fc part
Description: as §1

[10] = target: T11, human CD137-ECD-C121S-Fc mutant A97P (human, UniProt Q07011 24-186); assay: as above
T11 construct: Mutant of human CD137-ECD-C121S-Fc; not shown: Fc part
Description: as §1

[11] = target: T12, human CD137-ECD-C121S-Fc mutant Q104K (human, UniProt Q07011 24-186); assay: as above
T12 construct: Mutant of human CD137-ECD-C121S-Fc; not shown: Fc part
Description: as §1

[12] = target: T13, human CD137-ECD-C121S-Fc mutant G98K (human, UniProt Q07011 24-186); assay: as above
T13 construct: Mutant of human CD137-ECD-C121S-Fc; not shown: Fc part
Description: as §1

[13] = target: T14, human CD137-ECD-C121S-Fc mutant K115Q (human, UniProt Q07011 24-186); assay: as above
T14 construct: Mutant of human CD137-ECD-C121S-Fc; not shown: Fc part
Description: as §1

[14] = target: T15, human CD137-ECD-C121S-Fc mutant P27L (human, UniProt Q07011 24-186); assay: as above
T15 construct: Mutant of human CD137-ECD-C121S-Fc; not shown: Fc part
Description: as §1

human PD-1 (on cells) [15] = target: T2, human PD-1 (on cells); assay: cell-based or functional assay; remark: listed apart in the source
[16] = target: T16, human PD-1-extracellular domain (ECD) (human, UniProt Q15116 25-170); assay: SPR (Biacore 2000) at 37 C, antibody captured on Protein A, soluble PD-1-ECD as analyte, 1:1 Langmuir fit, mean ± SD
T16 construct: also called human PD-1-ECD; PD-1-ECD
Method: Samples are diluted in HBS-EP+(10 mM HEPES, 150 mM NaCl, 0.05% Tween-20, pH 7.6) running buffer (Teknova Cat #H8022). Protein A (5 mg/mL, Calbiochem Cat #539202) is immobilized on flow cells 1 to 4 of a CM5 senor chip (GE Healthcare Cat #29149604) at a level of 3000 to 4000 response units (RUs) using amine coupling chemistry. Briefly, the surfaces of all four flow cells are activated by injecting a 1:1 mixture of EDC/NHS for 7-minutes at 10 μL/minute. Protein A is diluted to 200 μg/mL in 10 mM acetate, pH 4.5 buffer and immobilized for approximately 3000-4000 RUs onto all four flow cells by 7-minute injection at flow rate of 10 μL/minute. Unreacted sites are blocked with a 7-minute injection of 1M Ethanolamine-HCl pH 8.5 at 10 μL/minute. Five 30-second injections of glycine pH 1.5 at 10 μL/minute are used to remove any non-covalently associated protein.
Binding is evaluated using multi-cycle kinetics by an antibody capture method. […] All analyte concentrations are determined utilizing monomeric molecular weight (MW) values. Association rates (kₒₙ) and dissociation rates (koff) for PD-1-ECD are evaluated using double referencing by flow-cell 1 reference subtraction in addition to 0 nM blank subtraction and fit to “1:1 (Langmuir) binding” model in the BIAevaluation software version 4.1. […]

T2 sequence (Q15116 25-288 limits assumed): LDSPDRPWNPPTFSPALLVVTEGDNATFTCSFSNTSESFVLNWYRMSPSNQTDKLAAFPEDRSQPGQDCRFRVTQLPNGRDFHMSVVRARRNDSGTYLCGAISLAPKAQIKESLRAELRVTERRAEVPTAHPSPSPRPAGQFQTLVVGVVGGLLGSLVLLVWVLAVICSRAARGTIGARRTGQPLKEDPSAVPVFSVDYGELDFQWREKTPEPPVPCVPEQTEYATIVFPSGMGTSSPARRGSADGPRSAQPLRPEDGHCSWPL
Sequence of human CD137 (on cells) (Q07011 24-255 limits assumed): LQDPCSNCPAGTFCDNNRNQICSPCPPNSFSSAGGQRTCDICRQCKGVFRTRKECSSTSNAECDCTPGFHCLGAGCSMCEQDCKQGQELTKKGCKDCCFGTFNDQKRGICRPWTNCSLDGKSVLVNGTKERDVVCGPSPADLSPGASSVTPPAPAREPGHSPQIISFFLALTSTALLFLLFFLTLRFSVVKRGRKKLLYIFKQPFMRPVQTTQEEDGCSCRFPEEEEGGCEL
T5 sequence (Q07011 24-186 Q67R/C121S): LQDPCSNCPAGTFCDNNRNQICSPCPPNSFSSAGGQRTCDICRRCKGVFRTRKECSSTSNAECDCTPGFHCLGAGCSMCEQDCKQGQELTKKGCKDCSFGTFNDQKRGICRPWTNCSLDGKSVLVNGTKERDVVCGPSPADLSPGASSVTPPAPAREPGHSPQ
T12 sequence (Q07011 24-186 Q104K/C121S): as the sequence (Q07011 24-186 Q67R/C121S) above, with R44Q, Q81K counted along it
T11 sequence (Q07011 24-186 A97P/C121S): as the sequence (Q07011 24-186 Q67R/C121S) above, with R44Q, A74P counted along it
T15 sequence (Q07011 24-186 P27L/C121S): as the sequence (Q07011 24-186 Q67R/C121S) above, with P4L, R44Q counted along it
T4 sequence (Q07011 24-186 M101R/C121S): as the sequence (Q07011 24-186 Q67R/C121S) above, with R44Q, M78R counted along it
T9 sequence (Q07011 24-186 S100T/C121S): as the sequence (Q07011 24-186 Q67R/C121S) above, with R44Q, S77T counted along it
T7 sequence (Q07011 24-186 Q67V/C121S): as the sequence (Q07011 24-186 Q67R/C121S) above, with R44V counted along it
T14 sequence (Q07011 24-186 K115Q/C121S): as the sequence (Q07011 24-186 Q67R/C121S) above, with R44Q, K92Q counted along it
T13 sequence (Q07011 24-186 G98K/C121S): as the sequence (Q07011 24-186 Q67R/C121S) above, with R44Q, G75K counted along it
T6 sequence (Q07011 24-186 K114E/C121S): as the sequence (Q07011 24-186 Q67R/C121S) above, with R44Q, K91E counted along it
T3 sequence (Q07011 24-186 G98Q/C121S): as the sequence (Q07011 24-186 Q67R/C121S) above, with R44Q, G75Q counted along it
T10 sequence (Q07011 24-186 D63N/C121S): as the sequence (Q07011 24-186 Q67R/C121S) above, with D40N, R44Q counted along it
T16 sequence (Q15116 25-170 limits assumed): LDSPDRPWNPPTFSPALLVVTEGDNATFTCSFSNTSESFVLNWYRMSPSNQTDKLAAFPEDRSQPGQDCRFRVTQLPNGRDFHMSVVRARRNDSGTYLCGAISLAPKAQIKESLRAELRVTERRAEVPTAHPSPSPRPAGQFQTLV
T8 sequence (Q07011 24-186 N42S/C121S): as the sequence (Q07011 24-186 Q67R/C121S) above, with N19S, R44Q counted along it
T1 sequence (Q07011 24-186 limits assumed): as the sequence (Q07011 24-186 Q67R/C121S) above, with R44Q, S98C counted along it

Kd (human CD137-ECD): 341 nM
fold induction of NFkB-Luc luciferase signal at 0.01 nM antibody (human CD137 (on cells)): 0.98 fold
fold induction of NFkB-Luc luciferase signal at 0.04 nM antibody (human CD137 (on cells)): 0.88 fold
fold induction of NFkB-Luc luciferase signal at 0.15 nM antibody (human CD137 (on cells)): 0.94 fold
fold induction of NFkB-Luc luciferase signal at 0.59 nM antibody (human CD137 (on cells)): 1.07 fold
fold induction of NFkB-Luc luciferase signal at 2.34 nM antibody (human CD137 (on cells)): 1.66 fold
fold induction of NFkB-Luc luciferase signal at 9.38 nM antibody (human CD137 (on cells)): 2.29 fold
fold induction of NFkB-Luc luciferase signal at 37.50 nM antibody (human CD137 (on cells)): 2.72 fold
fold induction of NFkB-Luc luciferase signal at 150.00 nM antibody (human CD137 (on cells)): 2.6 fold
IFN-γ mean EC50 in allogeneic MLR assay (3 donor pairs) (human PD-1 (on cells) [1]): > 32 nM
IL-2 mean EC50 in allogeneic MLR assay (3 donor pairs) (human PD-1 (on cells) [1]): > 32 nM
% of binding relative to wild-type hCD137 [2]: 100%
% of binding relative to wild-type hCD137 [3]: 100%
% of binding relative to wild-type hCD137 [4]: 100%
% of binding relative to wild-type hCD137 [5]: 20%
% of binding relative to wild-type hCD137 [6]: 100%
% of binding relative to wild-type hCD137 [7]: 100%
% of binding relative to wild-type hCD137 [8]: 100%
% of binding relative to wild-type hCD137 [9]: 100%
% of binding relative to wild-type hCD137 [10]: 15%
% of binding relative to wild-type hCD137 [11]: 100%
% of binding relative to wild-type hCD137 [12]: 85%
% of binding relative to wild-type hCD137 [13]: 25%
% of binding relative to wild-type hCD137 [14]: 100%
B1: Antibody p-7A5 (the parental antibody of the anti-CD137 arm of Antibody A) (antibody, V domains shown)
VH: QVQLVQSGAEVKKPGSSVKVSCKASGGTFSSYAISWVRQAPGQGLEWMGGIIPIFGTANYAQKFQGRVTITADESTSTAYMELSSLRSEDTAVYYCARDLMTTAPGTYFDLWGRGTLVTVSS
VL: AIRMTQSPPSLSASVGDRVTITCQASQDIGNSLGWYQQKPGKAPKLVIFDASDLETGVPSRFSGSGSGTDFSLTISSLQPEDFATYYCQQGNSFPLTFGQGTRLEIK
notes: Parental monoclonal anti-CD137 antibody; also called Antibody 7A5; parental antibody 7A5

% of binding relative to wild-type hCD137 [2]: 100%
% of binding relative to wild-type hCD137 [3]: 100%
% of binding relative to wild-type hCD137 [4]: 100%
% of binding relative to wild-type hCD137 [5]: 100%
% of binding relative to wild-type hCD137 [6]: 100%
% of binding relative to wild-type hCD137 [8]: 100%
% of binding relative to wild-type hCD137 [9]: 100%
% of binding relative to wild-type hCD137 [10]: 100%
% of binding relative to wild-type hCD137 [11]: 100%
% of binding relative to wild-type hCD137 [12]: 100%
% of binding relative to wild-type hCD137 [13]: 100%
% of binding relative to wild-type hCD137 [14]: 85%
B2: BMS20H4.9 (antibody, V domains shown)
VH: QVQLQQWGAGLLKPSETLSLTCAVYGGSFSGYYWSWIRQSPEKGLEWIGEINHGGYVTYNPSLESRVTISVDTSKNQFSLKLSSVTAADTAVYYCARDYGPGNYDWYFDLWGRGTLVTVSS
VL: EIVLTQSPATLSLSPGERATLSCRASQSVSSYLAWYQQKPGQAPRLLIYDASNRATGIPARFSGSGSGTDFTLTISSLEPEDFAVYYCQQRSNWPPALTFGGGTKVEIKR

IFN-γ mean EC50 in allogeneic MLR assay (3 donor pairs) (human PD-1 (on cells) [1]): 88 pM
IL-2 mean EC50 in allogeneic MLR assay (3 donor pairs) (human PD-1 (on cells) [1]): 0.238 nM
EC50, NFAT-Luc reporter assay (Jurkat PD-1+CD137+NFAT-Luc2 cells with CHO-K1 PD-L1+TCR activator cells) (human PD-1 (on cells) [15]): 1.4 nM
Kd [16]: 3.1 nM
B3: Antibody p-11444 (the parental antibody of the anti-PD1 arm of Antibody A) (antibody, V domains shown)
VH: QVQLVQSGAEVKKPGSSVKVSCKASGGTFSSYAISWVRQAPGQGLEWMGLIIPMFDTAGYAQKFQGRVAITVDESTSTAYMELSSLRSEDTAVYYCARAEHSSTGTFDYWGQGTLVTVSS
VL: DIQMTQSPSSVSASVGDRVTITCRASQGISSWLAWYQQKPGKAPKLLISAASSLQSGVPSRFSGSGSGTDFTLTISSLQPEDFATYYCQQANHLPFTFGGGTKVEIK
notes: Parental monoclonal anti-PD-1 antibody
